Assay results from publication PMC10258763.

Biological target: modifying region of human fatty acid synthase (hFASN) isolated by TEV cleavage of the engineered full-length protein (human) (UniProt P49327)
Assay: cryo-EM structure; hFASN modifying region after TEV cleavage, 0.8 mg/mL, 1 mM NADPH, 1 mM DTT; also with 13.75 µM Denifanstat; plunge-frozen on holey gold grids, Titan Krios

Chain of modifying region of human fatty acid synthase (hFASN) isolated by TEV cleavage of the engineered full-length protein (P49327 855-2511, change not shown): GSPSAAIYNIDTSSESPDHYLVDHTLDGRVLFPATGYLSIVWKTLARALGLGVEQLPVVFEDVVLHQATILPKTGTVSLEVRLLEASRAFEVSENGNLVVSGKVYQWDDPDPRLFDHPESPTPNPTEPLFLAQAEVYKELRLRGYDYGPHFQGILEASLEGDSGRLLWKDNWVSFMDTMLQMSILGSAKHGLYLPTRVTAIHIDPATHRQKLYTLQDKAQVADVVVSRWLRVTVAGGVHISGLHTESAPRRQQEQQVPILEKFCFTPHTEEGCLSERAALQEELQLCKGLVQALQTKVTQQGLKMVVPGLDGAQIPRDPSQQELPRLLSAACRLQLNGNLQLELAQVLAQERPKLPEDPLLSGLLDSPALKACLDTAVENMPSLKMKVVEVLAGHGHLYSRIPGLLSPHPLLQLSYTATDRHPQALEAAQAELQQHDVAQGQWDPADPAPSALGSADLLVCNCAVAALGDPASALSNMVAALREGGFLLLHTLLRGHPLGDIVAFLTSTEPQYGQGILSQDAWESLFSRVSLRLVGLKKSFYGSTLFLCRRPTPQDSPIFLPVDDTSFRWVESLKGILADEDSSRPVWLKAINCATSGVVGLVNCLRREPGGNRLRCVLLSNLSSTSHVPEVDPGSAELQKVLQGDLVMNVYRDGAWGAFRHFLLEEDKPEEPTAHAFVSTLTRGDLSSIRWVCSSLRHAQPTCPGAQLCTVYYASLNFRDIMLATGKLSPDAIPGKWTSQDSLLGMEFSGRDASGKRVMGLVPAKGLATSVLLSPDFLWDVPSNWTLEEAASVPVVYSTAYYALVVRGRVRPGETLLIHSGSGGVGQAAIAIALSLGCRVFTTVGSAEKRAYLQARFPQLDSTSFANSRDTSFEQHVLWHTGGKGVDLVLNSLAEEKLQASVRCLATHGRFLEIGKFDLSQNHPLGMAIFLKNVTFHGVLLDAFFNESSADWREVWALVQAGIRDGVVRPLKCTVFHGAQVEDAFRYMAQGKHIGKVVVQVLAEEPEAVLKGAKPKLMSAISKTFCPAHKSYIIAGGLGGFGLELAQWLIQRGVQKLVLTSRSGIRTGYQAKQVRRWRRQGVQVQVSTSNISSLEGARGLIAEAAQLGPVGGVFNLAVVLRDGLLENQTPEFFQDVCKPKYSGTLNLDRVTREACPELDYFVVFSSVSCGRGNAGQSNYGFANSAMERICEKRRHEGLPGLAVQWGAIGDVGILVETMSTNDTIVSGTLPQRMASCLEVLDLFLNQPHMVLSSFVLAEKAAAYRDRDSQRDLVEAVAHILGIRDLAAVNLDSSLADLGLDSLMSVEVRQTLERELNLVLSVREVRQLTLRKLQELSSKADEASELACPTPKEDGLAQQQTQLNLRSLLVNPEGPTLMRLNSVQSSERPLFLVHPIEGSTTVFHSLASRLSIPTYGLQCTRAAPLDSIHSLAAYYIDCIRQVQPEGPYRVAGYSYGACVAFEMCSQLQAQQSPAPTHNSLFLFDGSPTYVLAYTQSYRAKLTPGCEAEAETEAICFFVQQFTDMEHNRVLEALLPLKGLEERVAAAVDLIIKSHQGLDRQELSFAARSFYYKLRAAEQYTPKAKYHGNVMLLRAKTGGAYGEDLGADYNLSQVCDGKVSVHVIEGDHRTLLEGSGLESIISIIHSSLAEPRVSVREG

stoichiometry N: 2
Substance: modifying region of human fatty acid synthase (hFASN) isolated by TEV cleavage of the engineered full-length protein (from UniProt P49327 855-2511) (domain or fragment)
